The chains are these.
B1: CDC37 (cell division cycle 37), wild type, full-length (natural protein)
chain: MVDYSVWDHIEVSDDEDETHPNIDTASLFRWRHQARVERMEQFQKEKEELDRGCRECKRKVAECQRKLKELEVAEGGKAELERLQAEAQQLRKEERSWEQKLEEMRKKEKSMPWNVDTLSKDGFSKSMVNTKPEKTEEDSEEVREQKHKTFVEKYEKQIKHFGMLRRWDDSQKYLSDNVHLVCEETANYLVIWCIDLEVEEKCALMEQVAHQTIVMQFILELAKSLKVDPRACFRQFFTKIKTADRQYMEGFNDELEAFKERVRGRAKLRIEKAMKEYEEEERKKRLGPGGLDPVEVYESLPEELQKCFDVKDVQMLQDAISKMDPTDAKYHMQRCIDSGLWVPNSKASEAKEGEEAGPGDPLLEAVPKTGDEKDVSV

The target in test [1] is sBRAF V600E (solubilized BRAF kinase domain, residues 423-723, V600E) (human, UniProt P15056 423-723, V600E). As to the kind of experiment: ITC.
Test [2] deals with B1. Briefly: ITC.

The molecule B1 returned a Ka in test [1] of 2.44e+06 M⁻¹.

B2: sBRAF, solubilized version of BRAF kinase domain (residues 423-723), V600 background (domain or fragment)
chain: QRERKSSSSSEDRNRMKTLGRRDSSDDWEIPDGQITVGQRIGSGSFGTVYKGKWHGDVAVKMLNVTAPTPQQLQAFKNEVGVLRKTRHVNILLFMGYSTKPQLAIVTQWCEGSSLYHHLHASETKFEMKKLIDIARQTARGMDYLHAKSIIHRDLKSNNIFLHEDNTVKIGDFGLATVKSRWSGSHQFEQLSGSILWMAPEVIRMQDSNPYSFQSDVYAFGIVLYELMTGQLPYSNINNRDQIIEMVGRGSLSPDLSKVRSNCPKRMKRLMAECLKKKRDERPSFPRILAEIEELARELSG
B2 registered a Ka in test [2] of 965000 M⁻¹.

The record behind these values is PMC9313131 (2022).
